Assay results published in patent US20170362324A1 (Biogen, published 2017).

Legend:
[1] = target: T1, human αvβ5 expressed on BaF3 cells (stably transfected with human αv and β5 subunits) (human, UniProt P06756 31-1048; P18084 24-799); experiment: cell-based or functional assay
[2] = target: T2, human soluble αvβ5 protein (extracellular domains of human αv and β5 integrin subunits) (human, UniProt P06756 31-992; P18084 24-719); experiment: ELISA, biotin-αvβ5 on streptavidin plate, unpurified antibody
T2 construct: also called biotin-αvβ5; hsαvβ5
T2 sequence (P06756 31-992 limits assumed, chain 1 of 2): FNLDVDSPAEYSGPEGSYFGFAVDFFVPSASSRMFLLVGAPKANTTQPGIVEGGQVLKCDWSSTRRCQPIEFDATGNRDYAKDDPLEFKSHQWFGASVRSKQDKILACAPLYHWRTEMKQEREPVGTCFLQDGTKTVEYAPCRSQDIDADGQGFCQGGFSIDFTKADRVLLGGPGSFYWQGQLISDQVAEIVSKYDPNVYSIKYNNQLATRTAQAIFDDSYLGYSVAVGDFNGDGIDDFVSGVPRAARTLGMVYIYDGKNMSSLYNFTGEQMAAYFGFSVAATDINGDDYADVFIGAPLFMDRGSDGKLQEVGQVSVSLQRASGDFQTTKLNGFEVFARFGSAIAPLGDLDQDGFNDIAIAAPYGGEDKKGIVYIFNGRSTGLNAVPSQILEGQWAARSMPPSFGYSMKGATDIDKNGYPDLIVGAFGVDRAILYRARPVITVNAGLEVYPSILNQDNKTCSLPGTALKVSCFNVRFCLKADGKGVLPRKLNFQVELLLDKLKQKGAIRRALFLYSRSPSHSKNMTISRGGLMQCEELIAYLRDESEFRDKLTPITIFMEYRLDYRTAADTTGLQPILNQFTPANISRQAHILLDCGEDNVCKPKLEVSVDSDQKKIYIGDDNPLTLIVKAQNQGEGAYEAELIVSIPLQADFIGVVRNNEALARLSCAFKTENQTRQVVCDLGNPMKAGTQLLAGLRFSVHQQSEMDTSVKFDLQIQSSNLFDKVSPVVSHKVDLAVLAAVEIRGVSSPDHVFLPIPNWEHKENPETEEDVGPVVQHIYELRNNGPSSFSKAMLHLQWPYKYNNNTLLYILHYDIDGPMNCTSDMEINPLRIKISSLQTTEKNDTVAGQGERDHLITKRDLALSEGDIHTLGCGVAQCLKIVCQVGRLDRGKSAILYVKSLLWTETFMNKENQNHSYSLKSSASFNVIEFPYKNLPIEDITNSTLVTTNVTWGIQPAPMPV
T2 sequence (P18084 24-719 limits assumed, chain 2 of 2): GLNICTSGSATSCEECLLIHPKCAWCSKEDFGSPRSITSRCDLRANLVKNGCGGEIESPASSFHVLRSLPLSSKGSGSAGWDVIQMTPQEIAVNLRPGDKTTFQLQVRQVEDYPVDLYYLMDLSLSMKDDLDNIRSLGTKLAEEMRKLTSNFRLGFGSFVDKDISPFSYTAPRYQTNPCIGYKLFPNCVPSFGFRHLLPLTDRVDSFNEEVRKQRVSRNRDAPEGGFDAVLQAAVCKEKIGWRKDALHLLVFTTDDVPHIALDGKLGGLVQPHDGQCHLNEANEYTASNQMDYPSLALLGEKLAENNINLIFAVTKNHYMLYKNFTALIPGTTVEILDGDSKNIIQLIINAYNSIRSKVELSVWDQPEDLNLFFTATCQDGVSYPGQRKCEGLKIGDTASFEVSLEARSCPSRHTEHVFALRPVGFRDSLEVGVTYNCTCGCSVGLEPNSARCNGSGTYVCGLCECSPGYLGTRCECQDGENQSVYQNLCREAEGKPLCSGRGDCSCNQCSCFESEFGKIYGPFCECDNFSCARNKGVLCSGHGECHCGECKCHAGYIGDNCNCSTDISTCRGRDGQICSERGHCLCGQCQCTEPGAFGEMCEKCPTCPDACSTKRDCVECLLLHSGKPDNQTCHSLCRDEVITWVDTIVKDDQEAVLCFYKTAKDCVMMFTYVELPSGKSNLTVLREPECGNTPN
Method: Solid-Phase αvβ5 Binding Assay (ELISA): A 96-well microtiter plate was precoated with streptavidin (Thermo Scientific Reacti-Bind StreptAvidin Coated High Binding Capacity plate) was used. Biotinylated soluble αvβ5 protein (2 μg/mL) in TBS with 1% BSA was added to the wells, and the plate was incubated for 1 hr at 25° C. The plate was washed with wash buffer (0.05% Tween-20 in PBS), and purified humanized ALULA antibody in TBS containing 1% BSA, 1 mM CaCl2, and 1 mM MgCl2 were added (50 μl/well). The plate was incubated for 1 hr at 25° C., washed, and then incubated for 1 hr with 50 μl/well of […] goat anti-human secondary antibody. Bound antibody was detected using 3,3′,5,5′-tetramethylbenzidine (TMB). Binding was indicated by the absorbency measured at 450 nm.
(§1) Screening of all combinations of heavy chain versions VH0, VH1, VH2, VH3, VH4, or VH5, with light chains VL0, VL1, VL2, or VL3 was carried out using unpurified proteins in conditioned cell media. The binding of each construct to biotin-conjugated human αvβ5 protein was determined using a solid-phase binding assay (ELISA) and by FACS, and the ability of each construct to block ligand binding was determined using a vitronectin cell adhesion assay (Table 1).

[3] = target: T1, human αvβ5 expressed on BaF3 cells …; experiment: FACS on αvβ5-BaF3 cells, unpurified antibody
Method: FACS Binding Assay: Cells were washed one time in PBS, and then resuspended in FACS buffer (1×PBS, 1% BSA, 1 mM CaCl₂, and 1 mM MgCl₂). 1×10⁶ cells were then incubated on ice for 1 hr in FACS buffer containing the test antibody in a total volume of 50 μl. After incubation, the cells were washed two times with ice cold FACS buffer, resuspended in 50 μl of FACS buffer containing 3 μg/ml goat anti-mouse IgG AlexaFluor488 (Jackson ImmunoResearch), and incubated on ice for 30 min. The cells were then washed twice with ice cold FACS buffer and fixed in 1% PFA overnight. Cell aggregates were removed by filtering through 40 μm filter plates (Millipore) and binding of the labeled secondary antibody was monitored by flow cytometry using a FACS Calibur (BD Biosciences).
as §1

T1 sequence (P06756 31-1048 limits assumed, chain 1 of 2): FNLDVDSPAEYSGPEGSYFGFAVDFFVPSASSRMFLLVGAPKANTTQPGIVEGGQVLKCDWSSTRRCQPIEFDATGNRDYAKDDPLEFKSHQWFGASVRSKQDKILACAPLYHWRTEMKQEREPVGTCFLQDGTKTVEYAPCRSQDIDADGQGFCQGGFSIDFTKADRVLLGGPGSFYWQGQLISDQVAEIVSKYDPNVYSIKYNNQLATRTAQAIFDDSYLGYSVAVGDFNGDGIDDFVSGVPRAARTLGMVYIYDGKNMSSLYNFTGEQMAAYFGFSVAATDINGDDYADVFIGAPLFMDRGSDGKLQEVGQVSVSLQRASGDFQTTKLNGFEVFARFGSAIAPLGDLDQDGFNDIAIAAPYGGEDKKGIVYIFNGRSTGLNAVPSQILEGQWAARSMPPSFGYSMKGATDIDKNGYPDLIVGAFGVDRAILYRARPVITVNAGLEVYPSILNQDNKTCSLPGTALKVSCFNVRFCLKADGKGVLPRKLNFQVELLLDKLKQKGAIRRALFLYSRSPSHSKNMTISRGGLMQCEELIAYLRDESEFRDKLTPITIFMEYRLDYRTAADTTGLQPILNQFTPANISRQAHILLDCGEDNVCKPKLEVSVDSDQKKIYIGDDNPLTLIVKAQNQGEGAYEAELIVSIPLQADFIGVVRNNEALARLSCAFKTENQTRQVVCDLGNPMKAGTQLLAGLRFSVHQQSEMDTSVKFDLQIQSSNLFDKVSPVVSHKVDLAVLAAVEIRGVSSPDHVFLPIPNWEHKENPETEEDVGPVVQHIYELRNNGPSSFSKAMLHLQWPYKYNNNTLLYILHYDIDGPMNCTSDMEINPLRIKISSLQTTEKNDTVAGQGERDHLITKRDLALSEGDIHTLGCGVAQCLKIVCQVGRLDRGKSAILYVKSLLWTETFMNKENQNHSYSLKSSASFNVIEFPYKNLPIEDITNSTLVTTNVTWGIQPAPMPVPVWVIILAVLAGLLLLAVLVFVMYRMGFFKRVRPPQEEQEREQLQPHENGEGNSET
T1 sequence (P18084 24-799 limits assumed, chain 2 of 2): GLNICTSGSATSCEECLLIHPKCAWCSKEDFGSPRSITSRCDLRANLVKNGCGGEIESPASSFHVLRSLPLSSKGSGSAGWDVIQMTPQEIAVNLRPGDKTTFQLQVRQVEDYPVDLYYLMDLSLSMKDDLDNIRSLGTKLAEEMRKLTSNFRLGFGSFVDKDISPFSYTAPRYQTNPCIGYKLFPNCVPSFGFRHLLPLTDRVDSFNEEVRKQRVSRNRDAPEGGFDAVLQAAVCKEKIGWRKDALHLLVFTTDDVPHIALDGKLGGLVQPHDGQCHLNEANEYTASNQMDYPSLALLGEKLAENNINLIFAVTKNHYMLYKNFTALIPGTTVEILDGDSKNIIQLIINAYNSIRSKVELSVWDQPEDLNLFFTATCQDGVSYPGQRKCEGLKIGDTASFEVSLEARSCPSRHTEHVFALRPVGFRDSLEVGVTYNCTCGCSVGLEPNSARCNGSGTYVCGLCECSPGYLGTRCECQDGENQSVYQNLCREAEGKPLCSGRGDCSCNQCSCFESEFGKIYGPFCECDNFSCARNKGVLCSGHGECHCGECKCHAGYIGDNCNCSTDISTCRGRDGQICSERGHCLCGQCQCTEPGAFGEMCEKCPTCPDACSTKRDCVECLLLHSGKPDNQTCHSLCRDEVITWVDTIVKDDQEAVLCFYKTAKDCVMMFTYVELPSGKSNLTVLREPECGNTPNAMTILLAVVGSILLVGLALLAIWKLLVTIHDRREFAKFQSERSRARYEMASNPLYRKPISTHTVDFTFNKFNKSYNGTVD

Binder	VN adhesion inhibition, αvβ5-BaF3 (IC50, nM) [1] [nM]	EC50 [2] [nM]	EC50 [3] [nM]
VH1/VL3 Agly-hIgG1(T299A) (antibody, V domains shown, also called H1/L3) VH: EVQVVESGGGLVKPGGSLRLSCAASGYTFTSYWMHWVRQAPGKGLEWVGAIYPGNSDTSYNQKFKGRFTISADTSKNTLYLQMNSLKTEDTAVYYCTTTTYGYDWFAYWGQGTLVTVSS VL: DIQMTQSPSSLTVSVGDRVTMSCKSSQSVLYSSNQKNYLAWYQQKPGKSPKLLIYWASTRESGVPDRFTGSGSGTDFTLTISSVQPEDFATYYCHQYLSSLTFGAGTKLEIK	1840	2.9	2930
VH3/VL3 Agly-hIgG1(T299A) (antibody, V domains shown, also called H3/L3) VH: EVQVVESGGGLVKPGGSLRLSCKASGYTFTSYWMHWVKQAPGKGLEWVGAIYPGNSDTSYNQKFKGKFTLSAVTSSNTAYLQMNSLKTEDTAVYYCTTTTYGYDWFAYWGQGTLVTVSS VL: DIQMTQSPSSLTVSVGDRVTMSCKSSQSVLYSSNQKNYLAWYQQKPGKSPKLLIYWASTRESGVPDRFTGSGSGTDFTLTISSVQPEDFATYYCHQYLSSLTFGAGTKLEIK	227	1.2	6290
VH1/VL2 Agly-hIgG1(T299A) (antibody, V domains shown, also called H1/L2) VH: EVQVVESGGGLVKPGGSLRLSCAASGYTFTSYWMHWVRQAPGKGLEWVGAIYPGNSDTSYNQKFKGRFTISADTSKNTLYLQMNSLKTEDTAVYYCTTTTYGYDWFAYWGQGTLVTVSS VL: NIQMTQSPSSLSASVGDRVTMSCKSSQSVLYSSNQKNYLAWYQQKPGKSPKLLIYWASTRESGVPDRFTGSGSGTDFTLTISSLQPEDFATYYCHQYLSSLTFGQGTKLEIK	1730	2.3	5370
VH1/VL1 Agly-hIgG1(T299A) (antibody, V domains shown, also called H1/L1) VH: EVQVVESGGGLVKPGGSLRLSCAASGYTFTSYWMHWVRQAPGKGLEWVGAIYPGNSDTSYNQKFKGRFTISADTSKNTLYLQMNSLKTEDTAVYYCTTTTYGYDWFAYWGQGTLVTVSS VL: DIQMTQSPSSLSASVGDRVTMTCKSSQSVLYSSNQKNYLAWYQQKPGKAPKLLIYWASTRESGVPDRFSGSGSGTDFTLTISSLQPEDFATYYCHQYLSSLTFGQGTKLEIK	2520	1.9	3360
VH5/VL3 Agly-hIgG1(T299A) (antibody, V domains shown, also called H5/L3) VH: EVQVQQSGGGLVKPGGSLRLSCKASGYTFTSYWMHWVKQAPGKGLEWVGAIYPGNSDTSYNQKFKGKATLSAVTSPNTAYLQMNSLKTEDTAVYYCTTTTYGYDWFAYWGQGTLVTVSS VL: DIQMTQSPSSLTVSVGDRVTMSCKSSQSVLYSSNQKNYLAWYQQKPGKSPKLLIYWASTRESGVPDRFTGSGSGTDFTLTISSVQPEDFATYYCHQYLSSLTFGAGTKLEIK	72.2	1.4	422
VH3/VL1 Agly-hIgG1(T299A) (antibody, V domains shown, also called H3/L1) VH: EVQVVESGGGLVKPGGSLRLSCKASGYTFTSYWMHWVKQAPGKGLEWVGAIYPGNSDTSYNQKFKGKFTLSAVTSSNTAYLQMNSLKTEDTAVYYCTTTTYGYDWFAYWGQGTLVTVSS VL: DIQMTQSPSSLSASVGDRVTMTCKSSQSVLYSSNQKNYLAWYQQKPGKAPKLLIYWASTRESGVPDRFSGSGSGTDFTLTISSLQPEDFATYYCHQYLSSLTFGQGTKLEIK	360	1.2	1930
VH4/VL3 Agly-hIgG1(T299A) (antibody, V domains shown, also called H4/L3) VH: EVQVVQSGGGLVKPGESLRLSCKASGYTFTSYWMHWVKQAPGKGLEWVGAIYPGNSDTSYNQKFKGKFTISADTSPNTAYLQMNSLKTEDTAVYYCTTTTYGYDWFAYWGQGTLVTVSS VL: DIQMTQSPSSLTVSVGDRVTMSCKSSQSVLYSSNQKNYLAWYQQKPGKSPKLLIYWASTRESGVPDRFTGSGSGTDFTLTISSVQPEDFATYYCHQYLSSLTFGAGTKLEIK	64.8	1.7	162

Binders with a lower EC50 [2], results first:

VN adhesion inhibition, αvβ5-BaF3 (IC50, nM) [1] [nM]	EC50 [2] [nM]	EC50 [3] [nM]	Binder
3300	1	3680	VH1/VL0 Agly-hIgG1(T299A) (antibody, V domains shown, also called H1/L0) VH: EVQVVESGGGLVKPGGSLRLSCAASGYTFTSYWMHWVRQAPGKGLEWVGAIYPGNSDTSYNQKFKGRFTISADTSKNTLYLQMNSLKTEDTAVYYCTTTTYGYDWFAYWGQGTLVTVSS VL: DIQMTQSPSSVSASVGDRVTITCKSSQSVLYSSNQKNYLAWYQQKPGKAPKLLIYWASTRESGVPSRFSGSGSGTDFTLTISSLQPEDFATYYCHQYLSSLTFGQGTKVEIK
1970	1	855	VH0/VL2 Agly-hIgG1(T299A) (antibody, V domains shown, also called H0/L2) VH: EVQLVESGGGLVKPGGSLRLSCAASGYTFTSYWMHWVRQAPGKGLEWVGAIYPGNSDTSYNQKFKGRFTISRDDSKNTLYLQMNSLKTEDTAVYYCTTTTYGYDWFAYWGQGTLVTVSS VL: NIQMTQSPSSLSASVGDRVTMSCKSSQSVLYSSNQKNYLAWYQQKPGKSPKLLIYWASTRESGVPDRFTGSGSGTDFTLTISSLQPEDFATYYCHQYLSSLTFGQGTKLEIK
318	1	405	VH2/VL1 Agly-hIgG1(T299A) (antibody, V domains shown, also called H2/L1) VH: EVQVVQSGGGLVKPGESLRLSCAASGYTFTSYWMHWVKQAPGKGLEWVGAIYPGNSDTSYNQKFKGKFTISADTSSNTAYLQMNSLKTEDTAVYYCTTTTYGYDWFAYWGQGTLVTVSS VL: DIQMTQSPSSLSASVGDRVTMTCKSSQSVLYSSNQKNYLAWYQQKPGKAPKLLIYWASTRESGVPDRFSGSGSGTDFTLTISSLQPEDFATYYCHQYLSSLTFGQGTKLEIK
303	1	990	VH2/VL3 Agly-hIgG1(T299A) (antibody, V domains shown, also called H2/L3) VH: EVQVVQSGGGLVKPGESLRLSCAASGYTFTSYWMHWVKQAPGKGLEWVGAIYPGNSDTSYNQKFKGKFTISADTSSNTAYLQMNSLKTEDTAVYYCTTTTYGYDWFAYWGQGTLVTVSS VL: DIQMTQSPSSLTVSVGDRVTMSCKSSQSVLYSSNQKNYLAWYQQKPGKSPKLLIYWASTRESGVPDRFTGSGSGTDFTLTISSVQPEDFATYYCHQYLSSLTFGAGTKLEIK
494	0.9	1270	VH0/VL3 Agly-hIgG1(T299A) (antibody, V domains shown, also called H0/L3) VH: EVQLVESGGGLVKPGGSLRLSCAASGYTFTSYWMHWVRQAPGKGLEWVGAIYPGNSDTSYNQKFKGRFTISRDDSKNTLYLQMNSLKTEDTAVYYCTTTTYGYDWFAYWGQGTLVTVSS VL: DIQMTQSPSSLTVSVGDRVTMSCKSSQSVLYSSNQKNYLAWYQQKPGKSPKLLIYWASTRESGVPDRFTGSGSGTDFTLTISSVQPEDFATYYCHQYLSSLTFGAGTKLEIK
